According to PMC10058238, “Mechanism of sphingolipid homeostasis revealed by structural analysis of Arabidopsis SPT-ORM1 complex” (Science Advances, 2023):

B1: AtSPT-ORM1 complex (LCB1, LCB2a, SPTssa, ORM1) (Arabidopsis thaliana) (protein)
chain 1: MITIPYLTAVSTYFSYGLLFAFGQLRDFFRRFIDWWFTSNLQGYAPICLGHEDFYIRRLYHRIQDCFERPISSAPDAWFDVVERYSNDNNKTLKRTTKTSRCLNLGSYNYLGFGSFDEYCTPRVIESLKKFSASTCSSRVDAGTTSVHAELEECVTRFVGKPAAVVFGMGYATNSAIIPVLIGKGGLIISDSLNHSSIVNGARGSGATIRVFQHNTPSHLERVLREQIAEGQPRTHRPWKKIIVVVEGIYSMEGEICHLPEVVAICKKYKAYVYLDEAHSIGAIGKTGKGICELLGVDTADVDVMMGTFTKSFGSCGGYIAGSKELIQYLKHQCPAHLYATSIPTPSAQQIISAIKVILGEDGSNRGAQKLARIRENSNFFRAELQKMGFEVLGDNDSPVMPIMLYNPAKIPAFSRECLRQKVAVVVVGFPATPLLLARARICISASHSREDLIRALKVISKVGDLSGIKYFPAEPKKIEQSKNDIKLD
chain 2: MANLYVKAVPPPDMNRNTEWFMYPGVWTTYMLILFFGWLVVLSVSGCSPGMAWTVVNLAHFVVTYHSFHWMKGTPFADDQGIYNGLTWWEQMDNGQQLTRNRKFLTLVPVVLYLIASHTTDYRHPWLFLNTLAVMVLVVAKFPNMHKVRIFGINGDK
chain 3: MASNLVEMFNAALNWVTMILESPSARVVLFGVPIRGHFFVEGLLGVVIIILLTRKSYKPPKRPLTEQEIDELCDEWVPEPLIPPITEDMKHEPPVLESAAGPHTTVNGKDVVNFASANYLGLIGHEKLLESCTSALEKYGVGSCGPRGFYGTIDVHLDCETRISKFLGTPDSILYSYGLSTMFSTIPCFCKKGDVIVADEGVHWGIQNGLQLSRSTIVYFKHNDMESLRITLEKIMTKYKRSKNLRRYIVAEAVYQNSGQIAPLDEIVKLKEKYRFRVILDESNSFGVLGRSGRGLAEHHSVPIEKIDVVTAAMGHALATEGGFCTGNARIIDYQRLSSSGYVFSASLPPYLASAAITAIDVIDQNPDMLVKLKQNVALLWKGLSDIKGMSLTSNRESPIVFLKLEKSSGSAKDDLLLLEKMADRALKEDSLLVVSSKRSFLDKCRLPVGIKLYVSAGHSESDLLKASESLKRLASELLLKS
notes: full-length codon-optimized cDNAs; N-terminal Flag on SPTssa, other chains untagged; HEK293F, GDN; dimer of 1:1:1:1 protomers; endogenous ceramide copurifies; with Long chain base biosynthesis protein 1; Serine palmitoyltransferase small subunit A
B2: AtSPT complex (LCB1, LCB2a, SPTssa) (Arabidopsis thaliana) (protein)
chain 1: B1 chain 1
chain 2: B1 chain 3
notes: full-length codon-optimized cDNAs; N-terminal Flag on SPTssa, other chains untagged; HEK293F, GDN; without ORM1; with Serine palmitoyltransferase small subunit A

Tests used:
purified protein [1] = substrate: N[C@@H](CO)C(=O)O; test: purified protein; settings: 100 μM palmitoyl-CoA, 25 μM PLP, pH 7.5, 30 °C, active site in LCB2a/LCB1
purified protein [2] = substrate: CCCCCCCCCCCCCCCC(=O)SCCNC(=O)CCNC(=O)[C@H](O)C(C)(C)COP(=O)(O)OP(=O)(O)OC[C@H]1O[C@@H](n2cnc3c(N)ncnc32)[C@H](O)[C@@H]1OP(=O)(O)O; test: purified protein; assay type: biochemical, Arabidopsis thaliana; settings: 100 mM L-serine, 25 μM PLP, pH 7.5, 30 °C, active site in LCB2a/LCB1

| Protein | Km (purified protein [1]) | K0.5 (purified protein [2]) |
| --- | --- | --- |
| B1 | 10.44 ± 0.88 mM | 69.05 ± 6.13 µM |
| B2 | 7.33 ± 0.65 mM | 8.29 ± 0.80 µM |
